Two substances from US20140199242A1 can be followed below.

The test addresses MUC4 protein (endogenous human MUC4 of pancreatic cancer cells and tumor tissue) (human) (UniProt Q99102). In words: flow cytometry, cell-surface staining of paraformaldehyde-fixed unpermeabilized cells (cell line not given), 1 µg antibody/10^6 cells, FITC anti-mouse secondary.

For anti-KLH antibody K2G6, the MFI (mean fluorescence intensity) was 14.2.
The result for anti-MUC4 TR MAb 8G7 (antibody) reads 23.1.
